Results reported in patent US20040136998A1 (published 2004).

Molecular target: T1, prostate specific membrane antigen (PSMA) (human, UniProt Q04609 1-750)
T1 construct: whole, on cells; Target in all assays is PSMA on LNCaP (LNCap) cells or LNCaP membrane preparation; also called human PSMA
Assay: ELISA on plates coated with LNCap membrane preparation; purified antibody; reference: J415 chimeric antibody

T1 sequence (Q04609 whole entry): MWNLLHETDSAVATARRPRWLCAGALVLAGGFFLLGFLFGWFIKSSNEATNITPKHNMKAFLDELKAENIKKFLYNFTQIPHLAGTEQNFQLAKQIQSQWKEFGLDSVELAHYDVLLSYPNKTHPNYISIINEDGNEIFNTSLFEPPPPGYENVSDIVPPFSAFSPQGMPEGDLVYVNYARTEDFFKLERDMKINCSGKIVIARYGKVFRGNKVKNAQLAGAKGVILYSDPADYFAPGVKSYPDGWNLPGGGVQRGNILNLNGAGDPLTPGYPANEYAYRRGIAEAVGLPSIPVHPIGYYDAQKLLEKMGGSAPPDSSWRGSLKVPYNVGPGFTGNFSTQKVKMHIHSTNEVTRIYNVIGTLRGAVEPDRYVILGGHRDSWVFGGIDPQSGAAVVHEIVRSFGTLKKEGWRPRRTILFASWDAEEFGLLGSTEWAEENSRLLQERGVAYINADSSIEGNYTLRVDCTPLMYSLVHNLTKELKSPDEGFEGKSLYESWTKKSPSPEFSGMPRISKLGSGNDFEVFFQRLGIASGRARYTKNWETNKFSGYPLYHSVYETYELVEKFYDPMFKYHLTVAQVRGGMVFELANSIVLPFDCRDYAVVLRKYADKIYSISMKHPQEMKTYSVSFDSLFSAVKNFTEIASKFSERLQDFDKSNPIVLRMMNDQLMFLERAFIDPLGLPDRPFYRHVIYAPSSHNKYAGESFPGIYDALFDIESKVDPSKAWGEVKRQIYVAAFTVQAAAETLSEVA

B1: deimmunized J415 antibody, heavy chain version 2 with light chain version 5 (antibody, V domains shown)
VH: EVKLEESGGGLVQPGGSMKISCVASGFTFSNYWMNWVRQTPEKGLEWVALIRSQSNNFATHYAESVKGRVIISRDDSKSSVYLQMNSLRAEDTAVYYCTRRWNNFWGQGTTVTVSS
VL: NIVMTQFPKSMSASAGERMTLTCKASENVGTYVSWYQQKPTQSPKMLIYGASNRFTGVPDRFSGSGSGTDFILTISSVQAEDLVDYYCGQSYTFPYTFGGGTKLEMK
fold less binding than the chimeric antibody: 2 fold
